# Entries after “also recorded” stand apart in the source; their conditions may differ.
# Legend:
# [1] = molecular target: Aβ42WT (Homo sapiens, UniProt P05067); experiment: Co-immunoprecipitation of MBP with Aβ42WT; format: binding
# Method: AP peptides were resuspended in Me2SO to 2.5 mM and used at 10.8 μM. MBP was used at 1.56 μM. Proteins were combined in 250 μl of incubation buffer (PBS, 0.05% Tween 20, and 1% BSA). Anti-MBP mAb 382 was added to each sample mixture and incubated for 1 h at 4° C. with rocking. After incubation, 20 μl of washed GammaBind protein G-Sepharose beads (Amersham Biosciences) were added to each mixture, followed by incubation for an additional 1 h at 4° C. with rocking. Beads were separated by centrifugation at 8000×g for 2 min. Supernatants were removed, and beads were washed with 1 ml of incubation buffer. Separation and washing were repeated three times. A final wash was performed in PBS and 0.05% Tween 20 to remove excess BSA. Centrifuged beads were combined with 25 μl of reducing SDS-PAGE loading buffer and heated as described above. 10 μl of each sample/loading buffer mixture was loaded onto 10-20% Tricine gels (Invitrogen) and electrophoresed at 125 V for 35 min. Immunoblotting was carried out as described above using either biotinylated anti-MBP mAb 384 or biotinylated anti-Aβ mAb 3D6 as primary antibody. Experiments were performed in triplicate.
# [2] = molecular target: Aβ40DI (Homo sapiens, UniProt P05067, D694N/E693Q); experiment: Thioflavin T fluorescence assay of Aβ40DI fibril formation; format: biochemical; conditions: 12.5 μM Aβ40DI, 1.56 μM protein, PBS, 37° C.
# Method: FIG. 16 Thioflavin T analysis of inhibition of CAA mutant Aβ fibril formation by MBP. Aβ40DI at a concentration of 12.5 μM in PBS in the absence (□) or presence of 1.56 μM MBP(□) or bovine a-lactalbumin (Lalb; □) as a control. At specific time points, aliquots were collected from each sample and analyzed by thioflavin T binding and fluorescence to determine fibrillar assembly. Data represent the means±S.D. of triplicate samples. A.U., arbitrary units.
# The Aβ B binding properties of the exemplary fragments of MBP described herein were determined in a thioflavin T fluorescence assay as follows: Lyophilized Aβ peptides were first resuspended with Me2SO to 2.5 mM, diluted to 12.5 μM in PBS, and then incubated at 37° C. with rocking either alone or with 1.56 μM MBP or bovine α-lactalbumin. Control samples containing 0.5% Me2SO and 1.56 μM MBP or lactalbumin in PBS were also included. At each time point, 100 μl samples of each reaction were placed in a 96-well microplate in triplicate, and 5 μl of 100 µM thioflavin T was added. The plate was mixed and incubated at 22° C. in the dark for 10 min. Fluorescence was measured at 490 nm with an excitation wavelength of 446 nm in a SpectraMax spectrofluorometer (Molecular Devices, Sunnyvale, Calif.) using SoftMax Pro control software. It is apparent that the method enables persons of skill in the art to determine the binding properties of MBP, variants thereof, and fragments thereof for any Aβ-peptide, including mutants thereof.
# [3] = molecular target: wild-type Aβ40 (Aβ40WT) (Homo sapiens, UniProt P05067); experiment: Surface plasmon resonance binding to wild-type Aβ40; conditions: compared with CAA mutant Aβ40
# Method: (§1) All runs were performed on a Biacore 2000 instrument using 10 mM HEPES (pH 7.4), 150 mM NaCl, 3 mM EDTA, and 0.005% (v/v) Tween 20 as running buffer and diluent. Streptavidiri was conjugated to the surface of three flow cells of a CM5 chip at 10 μl/min using amine coupling chemistry to a final average response level of 1890.2 response units. N-terminally biotinylated Aβ peptides were resuspended in Me2SO to 2.5 mM and serially diluted to 13 nM immediately before application. Biotinylated Aβ40WT and Aβ40DI were bound to individual flow cells at 10 μl/min to achieve an average relative response level of 157.1 response units, leaving flow cell 1 as reference. […] The resultant Rmax of these surfaces was ˜700 response units with MBP as analyte. Purified MBP was passed over all four flow cells at 5, 10, 25, 50, and 100 nM at a flow rate of 30 μl/min for kinetic measurements. […] Surfaces were regenerated with 0.2 M glycine (pH 2.0) and 150 mM NaCl between runs. The resulting sensorgrams were analyzed by BIAanalysis software. Triplicate concentration series were used for each surface.
# [4] = molecular target: Dutch/Iowa CAA mutant Aβ40 (Aβ40DI) (Homo sapiens, UniProt P05067, D694N/E693Q); experiment: Surface plasmon resonance binding to immobilized Dutch/Iowa Aβ40
# Method: as §1
# Using recombinant methodology to express and purify regions of the 18.5 kDa human MBP protein and test their abilities to bind Aβ and inhibit fibrillogenesis, cDNAs were prepared for the following regions of MBP shown in FIG. 3. The cDNAs for MBP fragments were cloned into pTYB11 plasmids containing an ampr gene and transformed into competent E. coli BL21 DE3 cells. Expression of cDNAs in this vector results in a fusion protein containing a chitin binding domain (CBD) as well as a self-cleavable intein protein from S. cerevisiae. CBD-Intein-MBP fusion proteins were captured on chitin beads from the resulting cell lysates. MBP protein fragments were eluted by inducing the cleavage between the C-terminus of the intein and the N-terminus of MBP by exposure to dithiothreitol. […] MBP was further purified by cation exchange chromatography on CM52 resin, resulting in a >95% pure protein preparations. Each of the four MBP fragments were tested for binding to Dutch/Iowa Aβ40 and wild-type Aβ42 by surface plasmon resonance (FIG. 4).
molecule,measurement,setting,value
"myelin basic protein (protein, myelin basic protein, major form about 18.5 Kd (170 residues); purified protein) ASQKRPSQRHGSKYLATASTMDHARHGFLPRHRDTGILDSIGRFFGGDRGAPKRGSGKDSHHPARTAHYGSLPQKSHGRTQDENPVVHFFKNIVTPRTPPPSQGKGRGLSLSRFSWGAEGQRPGFGYGGRASDYKSAHKGFKGVDAQGTLSKIFKLGGRDSRSGSPMARR",interaction in co-immunoprecipitation,[1],interacts
same,inhibition of Aβ40DI fibril assembly (thioflavin T),[2],completely inhibits; also recorded: inhibit
same,binding to wild-type Aβ40,[3],Significantly weaker binding
same,binding to Dutch/Iowa CAA mutant Aβ relative to wild-type Aβ,[4]; SPR,bound more tightly
same,Kd,[4]; surface plasmon resonance,16.9 nM
